Our source for the Amount necessary to degrade 50% of substrate in 30 min values is patent publication US6960559.

The subject of the data set is T1, cbz-FAF[125I]Y-NH2.
T1 sequence: FAFY

B1: papain (enzyme, UniProt P00784 134-345, looked up)
Papain: IPEYVDWRQKGAVTPVKNQGSCGSCWAFSAVVTIEGIIKIRTGNLNEYSEQELLDCDRRSYGCNGGYPWSALQLVAQYGIHYRNTYPYEGVQRYCRSREKGPYAAKTDGVRQVQPYNEGALLYSIANQPVSVVLEAAGKDFQLYRGGIFVGPCGNKVDHAVAAVGYGPNYILIKNSWGTGWGENGYIRIKRGTGNSYGVCGLYTSSFYPVKN
Turning to B1, the Amount necessary to degrade 50% of substrate in 30 min stood at 2 µg.
